The series can be described thus: soluble on expression in E. coli; label from the status in PepcDB or PDB records.
In the case of “MSNHQKRLSVPNSWPVERKTATFTVKAGAGPHGESGVPLLIVLRDVLGYADNRKEARYALNEDNVLINGKAISDEERPVGMFDILAFTEREEYYRVFPGEGGRLALTAIDPDAAQSKLGKIVTKTHVSGGDVQLGLHDGETLIVEDDQTYDAGDSIVVGNEDGEVVAHFEYEEGALVTAVDGAHAGEVGEVEEIQVTPGSAQNNVIVSQDEGEGFETVEEYVVVIDENFTGDDELEHHHHHH”, the “soluble on expression in E. coli” value is “soluble”. For “MHIDNVVFMKKVLDASAFINGYVPEGRENYTVRSVTEEIRDFRSMMILEDALREGRLKITEPDPESMKVVEDAISESGDIMRLSPTDMEVIGLAVSLRGKDDVTVITDDYTIQNTLKILGIGFRSVLTSGIRDTYSWRRVCTGCRRVYPLDYEFEECEICGSRIVRKRHRNLEHHHHHH”, the “soluble on expression in E. coli” value was “soluble”.

In the case of “MTKIRQKSRKPGRTSRAKPVVAVVWYEDEQEWRAMRDLADDPERFEDSYEAWLTMFDRSLERLREGGAFPVRTPCNATKYREWCESKARSFDACSRSEYAAREFQARATQDE”, the “soluble on expression in E. coli” value was “not soluble”.

Regarding “ELGIKRESKLEFKLWYDDEKTPEALVFVVQGMGDDISSIQYVGDYMVRQFNTAVVGVNYHCIGNRPQTGSSFFMDDIDKLILKASCEAADIKLPYDVDKIQDYKAMSEIFHFVNNQIVEGKQKGNFTPNYFLNLHVSLQPTKNEYQNFGIMQAQDLLNVALYLKKHAPFDTMGGGIPIIMIGGSHGGYLAHLAAKIAPWLVDGVLDNSAYAKFLWRVVGFGKEIDFMQYSEFATFDFFHHIKTHCSTKTFWTSNSSSPRFFSPARRKIRNLLEEDHLLKQSKCLKTCFISYHSLYDEYVSLKEKTMFYEELEKLGFDVTLHSIT”, the “soluble on expression in E. coli” value was “not soluble”. For the sequence “MGSDKIHHHHHHMRAYDVILKKRNGEKLSREEIEFMVGGYVKGEIPDYQMAAFLMAVYFRHLDEEETYYFTETMMRSGEVLDLSEIPGTKVDKHSTGGVGDKTTLVVAPLVASAGVPVAKMSGRALGHTGGTIDKLESIPGFRTELSLEEFIKNVKKYGIAIVGQTGNLVPADKKIYALRDATATVDEISLIASSIMSKKLAGGSDAFVLDVKFGTGAFMKGFEDAKKLAFLMLRIAQQHGKKAVAVLSNMDQPLGKAVGNSLEVIEAIETLKGNGPEDLKELSLTLGALMLELAGVADFEEGKKILQEKLETGEALDKFRLLVKAQGGNERVVDDPWRVLPVAEQVVEFSAAREGFVSKIDAEKVGIASMMLGAGRKKKEDRIDHSVGIIVEKKLGDSVKKGEAIARLFVSDRSDVESALKLLKEAYVISDSPSEPPRVVEEVIK”, the “soluble on expression in E. coli” value was “not soluble”.

As to “MTKKDEVKELEVKNNIPEAEKKPFNKFGKQEKHTVEDVEYTFQFPGTRAAQAILDNSKGPSNTFSDVAYHSQLMDSVIVTPKLNWDYWDEHEGYREVMALADNFLGRMLN”, the “soluble on expression in E. coli” value is listed as “not soluble”. Then “REGITKNPTKRIIKDVETVDYPEKLIVPYIDTVHDRIVLELFRGCTRGCRFCQAGMIYRPIREKSVKRLKEILDKLVKNTGYDEISLSSLSTSDYSKLSELTDYLVDEYASNNIGISLPSLRLDNFSMEIADKIQQVRKSGLTFAPEAGTQRLRDVINKGVTEEDLENATERAFEMGWNSVKLYFMIGLPTETYEDLDGIAKLAYKV”, with “not soluble”; and “MGSDKIHHHHHHMSKAYSSNLTQDQWELLEPLIPVGKTGGRPRVVEMWQVINAIFYVLTQGCTWRNLPGDLPNWQTVYTYFRNWRKDGTWVSIHDQLRDWERVNNERAVSPTEAIIDSQSVKTAAMVTQQVGYDAGKKVKGRKRFLTVDTLGLVLPVLVSAASVDERSGGKLLLQKVKQMGDKVSRLNLIWVDGGYDGNPFMQWVMDFYRWVVQVVLRPRERKGFVLLPKRWVVERTFGWLTGCRRLNKDYELLPETAENFIYLAMIRIMVRRLA”, with “not soluble”. Consider “MLKIDAIAFFGSKTKLANVAGVRLASVAAWGELVPEGRAMRLQEASGGELQYDPKVYDEYRKAKRAGRLNNENHH”, for which the “soluble on expression in E. coli” value is recorded as “not soluble”. With “MKKSLALLAFATLLPSAWTHADSAYINYRHQYAESTRMHADRVKFGSRLDSGWGFEGELKYKTAGDRQDVAFDNTVGNGHELTTSYQYRLNDKWMLTPSLALESIEKSTAYKMGLKLGYKVNDQLSVSGRYRYDSIKLDRDKVNHDMPDNQMDDQSINRYDVWVNYASKGPWAYEYQFTYFDADYIRYDNGRTDYEQNAAFKYRWDKHWVPFFEVGDIKVDSEDDKRQLRLRVGVQYNFL”, the “soluble on expression in E. coli” value is listed as “not soluble”.

Take “MSLNHHPIIYLVDHQKDARAALSKLLSPLDVTIQCFASAESFMRQQISDDAIGMIIEAHLEDKKDSGIELLETLVKRGFHLPTIVMASSSDIPTAVRAMRASAADFIEKPFIEHVLVHDVQQIINGAKEGHHHHHH”: the “soluble on expression in E. coli” value is recorded as “soluble”. Regarding “MELEAGTVVEGRVVRVVSFGAFVELAGGEQGLVHISQIAHEYVTNVRDYLNEGDIVQVLIKGRDAKGRLDLSIKDLTPAPEGGAPPPRPRRLPKQSPEFENKLKSFLRGTGGFGGKGKKGGRKKR”, the “soluble on expression in E. coli” value is reported as “soluble”. For the sequence “MGSDKIHHHHHHMAGSAGGLSASDGDFFLCDLFDPVPKGDLGTMEHPVFSLATRPDRRILTYEHNGVEITVTPSVKGRATIFDKDILIFCTSQLMAAINANRPVSRTLQLTAHDLLLATGRDRSGDGYKRLRAAFERLAGTRITTNLITGGVEVTQGFGLIEAWQIVRRTRNGRMVSVSVTLSEWLYRAALTKSVLTLSRQYFRMRKPLERRIYELARKHCGRQNEWRVSVDTLLKKSGSASPRRVFRAMLREMIAADALPDYHLQEEPGDILRVTLRDAVIEAAGRPIVSSDTLNQARALMPGWDVYVLEAEWRNWWAATGRPHLRSPDKAFLGWVRTQAARA”, the “soluble on expression in E. coli” value is “not soluble”. “MTVNKITYQNLQEEVYKLTLESGLNVYLIPKPSFKETVGVLTANFGSLHTKYTRNGCVEHYPAGIAHFLEHKLFELDKGQDAATQFTKYGAESNAFTTFDKTSFYFSTISHITNCLDILLDFVLTTNFTEESITKEKDIIKQEIEMYQDDPEYRLYQGVLSNLYPNSPLAFDIAGDYQSISQITLTDLQENHKDFYQLSNMNLVLVGQFSPQEIITYLQKNSHFTSYSQNIDRDSISLEPVIKNNSCHMTVTKPKLAIGYRKSNHMIHGSYLKEKIGLQLFFAMLLGWTSTINQDWYESGQIDDSFDIEIEVHPDFECVIISLDTTEPIAFSTQLRLLLKNALQSSDLTESHLKNVKRELYGDFLRSLDSIENLAMQFVTYLYDGKTMYLDLPSIVEELDLEDVITIGKDFLDNADTSDFVIFPKSS”: the “soluble on expression in E. coli” value was “not soluble”. “VNEVLAKNLSLLKEYQPETYLKLDRYIKGEYVPKDNSVEKILLARQDDLIINILVKCSDKDFLLCDHENPINEAYAWIDKYIDPSNKADIVFGMGLAFHLEVLLTSFPNKKVIVIEPNINLFYQIACIRNLEPVIKKAEIIVDEDLDVILERINSLFWDTEKGGIQVQPLEVYGEMFPEMWDKLRDSFIKLANNFTVDIATRRKFGELWVHNNIKNLNKICEASNAGVLVGKFKGIPGILVSAGPSLEKNIHLLKGLEDKCVIMAAGTAVRIMEDFGLAPHFMVGIDAGAKEGEIHSNVKNKDIYFIYSNQVSTYSVDGYKGPKFVMNYPIDMYTAGFFEYAGIKSDFFLSGPSVANTCFDILFKMGCDPIIIIGQDMAFTYGSMYAGEVPGTVVDGAGEAKRRGYVLAKDIYGNEVYTTRPFLAMRNWFEGYFEKVRDKTTIINATEGGLNISYARNETLEAALKSCNLSESGIKDHIRSLHEEGKFADTVASKIEEYRAYVQREIRRLEQLSKRQLETAEDLKRDVYHPSKSRSRFIKAVNSINEMSDRVLQSPIYNSLLKNLVEIDFYIIKAEVDRLVKILTKYDDIKNVYVNAILSQNQKLNASLGKIKKFFDESDVTA”: the “soluble on expression in E. coli” value was “soluble”.

As for “MHIKIDDLTGRQVVSLVNEHLHSMTLMSPPESIHALGLEKLRGPEITFWSAWEGDELAGCGALKELDTRHGEIKSMRTSASHLRKGVAKQVLQHIIEEAEKRGYERLSLETGSMASFEPARKLYESFGFQYCEPFADYGEDPNSVFMTKKLLEHHHHHH”, the “soluble on expression in E. coli” value is given as “soluble”. Consider “MGSDKIHHHHHHMKIVFLAPFGIRPKGTVVARMVPLAAELQALGHRVTIVAPPYTNPEDSGHTEEIRGVRLRNIRLAPGGAALSAPVMAWRMYRAAREEEPDLIHLFKPKGYGGLAAMLHLLTASRSSPLFLDTDDWEGRGGMNALHDYSPAQRLLFAFQEEWLPPRVRGVTVASRELEARIAAMGVAPERLLYLPNCVDDQPLGNGARVRARLGIDGNAPVVLLYTRFFEFSQEDLHRVFAGLSRKVPGIRFLVVGTGRNREEELLAAAARAEGFADSLHIAGWVEPDELPHWLAAGDVALYPFADTLVNRAKCPAKLTELMRAGVPVVADRVGQIAEYVEDGISGILCRPSAPDEMIARIAELLADPVRRRAVGTAGRERILSRFNWRDAAARLDAFYDNLTRRRNLA”, for which the “soluble on expression in E. coli” value was “not soluble”. Regarding “MGSSHHHHHHGKTIFVIVPTNEEQVAFLEALAKQDELNFDWQNPPTEPGQPVVILIPSDMVEWFLEMLKAKGIPFTVYVEEGGSENLYFQGGGGGGPKREEQMYMHIRKVYGDNIPEELLQRAKRQREAQDALTLTNMLRTPTPGQTSNALQNDLDPRALIELKSWNGH”, the “soluble on expression in E. coli” value is “soluble”. Then “MAEPKYAIIINDIKRLISDGTFKPGEKIYSEDELKKKYNVSNTTVVRALHELVRAGILARYQGKGTYVSKSIINEEVIFNEYTTVPNGKFNRKTKIANEHTKVVAINEIQDARIAKNLQIPPENMIVHFQRIRLIDDVPWTVQNNYMAKANLINVDLTNFERFNSLSEVIKELYGINILHEAMKERIQVEFPVKDKNNFKLLEIDSELPLYHIERITYVPEGQPYEYIESYLRHNFYSIEIEKKKQ”, with “not soluble”. Then “MGIDKELYKACETALKQCMGVKPGETVLVIADEPEREIGYHLWMKAKELGAEAIYVEILPRKMHGEEPPKPVAEAMKVADVVIAPTSKSITHTLAKKEACERGARVATLPGITREIFVRTMSADYEGMLELTNKIADVLDKGKEVHILTPLGTDLKFSIEGRKARRSTGIYRNPGECGNLPGAEAYIAPLEGTANGRVVIDGSMAGIGVLKEPIEIIVKDGFAEDIRGGEEAEKLREILSRYGKEARNIAEFGVGTNPKARISGNILEDEKVFGTVHIALGSNYDFGGKVKAPVHLDGIIKEPTVLIDGKYLFKDGNLVI”, with “soluble”; and “MGSDKIHHHHHHMHFDIKDLKLFLAISEEGSITRGAEKTYMSAASGSVRIRNLEQSINLRLLYRSSKGITLSSAGETFKHHASLIVNQMEMLRSDMQEHVKGIKGHVRIFSSITAIAEYLPPLLSHFLTLYNDVNIDLREYPSPEIVRSVIEGKTDLGIVAGNITTDNLEILPFRTDRLVLITATDHPFADRKSVTFHELIQYEQISLPEGTGMFEFIRKKAELVPSKLKIRIQVGNFETFCRMVEAKVGIGIMPHSAASRLRQLHEFSIIDLDEFWSLRKLQICARSFDKLPGFTQKLVTMLTAQTE”, with “not soluble”.

The values are drawn from the DeepSol protein solubility set.
